Earlier results as cited in article PMC8946809.

Target: His516 (UniProt position 538, FRPNYHGVGTC)
Test: kinetics
Details: enzyme-substrate complex

## Glucose oxidase (GOx) (Aspergillus niger)
  pKa: 6.9–7.8
